Assay results taken from the supplement of paper PMC9233669.
Variants at the floor of the assay were thinned out.

What was measured:
biotinyl-Ile-oxazolone = test: self-aminoacylation, catalytic enhancement (BIO) (fold over background); higher = more active; k-Seq, kA / k0A0; sequences stand for … in GGGAAUGGAUCCACAUCUACGAAUUC…UUCACUGCAGACUUGACGAAGCUG
In short: (§1)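 Catalytic enhancement equals the median kA over the uncatalyzed rate, the latter read from the low-activity peak of a bimodal Gaussian fit. Values of kA came from fitting each sequence's fraction reacted to a pseudo-first-order model, with 1000 bootstraps. Reacted RNA was captured with streptavidin and quantified by triplicate qPCR and Illumina sequencing after 90 minutes at room temperature with 2–1250 μM biotinyl-aminoacyl-oxazolone and 0.43 μM mutagenized RNA pools bearing a 21-nt variable region.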

biotinyl-Trp-oxazolone = test: self-aminoacylation, catalytic enhancement (BWO) (fold over background); higher = more active; k-Seq, kA / k0A0; sequences stand for … in GGGAAUGGAUCCACAUCUACGAAUUC…UUCACUGCAGACUUGACGAAGCUG
In short: as §1

biotinyl-Leu-oxazolone = test: self-aminoacylation, catalytic enhancement (BLO) (fold over background); higher = more active; k-Seq, kA / k0A0; sequences stand for … in GGGAAUGGAUCCACAUCUACGAAUUC…UUCACUGCAGACUUGACGAAGCUG
In short: as §1

biotinyl-Val-oxazolone = test: self-aminoacylation, catalytic enhancement (BVO) (fold over background); higher = more active; k-Seq, kA / k0A0; sequences stand for … in GGGAAUGGAUCCACAUCUACGAAUUC…UUCACUGCAGACUUGACGAAGCUG
In short: as §1

biotinyl-Met-oxazolone = test: self-aminoacylation, catalytic enhancement (BMO) (fold over background); higher = more active; k-Seq, kA / k0A0; sequences stand for … in GGGAAUGGAUCCACAUCUACGAAUUC…UUCACUGCAGACUUGACGAAGCUG
In short: as §1

biotinyl-Phe-oxazolone = test: self-aminoacylation, catalytic enhancement (BFO) (fold over background); higher = more active; k-Seq, kA / k0A0; sequences stand for … in GGGAAUGGAUCCACAUCUACGAAUUC…UUCACUGCAGACUUGACGAAGCUG
In short: as §1

Sequence | self-aminoacylation (biotinyl-Ile-oxazolone) | self-aminoacylation (biotinyl-Trp-oxazolone) | self-aminoacylation (biotinyl-Leu-oxazolone) | self-aminoacylation (biotinyl-Val-oxazolone) | self-aminoacylation (biotinyl-Met-oxazolone) | self-aminoacylation (biotinyl-Phe-oxazolone)
GUACUUCAGACAAUCGGUCUG [Fam1A.1 aminoacylation ribozyme variant] | 1.22 | 1.56 | 1.32 | 1.06 | 1.2 | 4.98
GUCCACCUAGGUCAUCGGGUG [Fam2.2 aminoacylation ribozyme variant] | 4.43 | 6.85 | 4.46 | 4.67 | 4.1 | 35.1
GUGACCCUGGUCAUCGAGUGA [Fam2.1 aminoacylation ribozyme variant] | 7.41 | 17.8 | 19.6 | 7.42 | 21.7 | 144
GUGCUUCAAACAAUCGGUCUG [Fam1A.1 aminoacylation ribozyme variant] | 2.57 | 79.6 | 4.85 | 2.39 | 2.69 | 195
GUUAACCUAGGUCAUCGGGUG [Fam2.2 aminoacylation ribozyme variant] | 7.79 | 12.7 | 16.1 | 6.73 | 11.9 | 77.3
GUUAACCUGGUCAUCGAGUGA [Fam2.1 aminoacylation ribozyme variant] | 4.69 | 8.69 | 6.73 | 3.95 | 6.75 | 24.2
GUUACCAUGGUCAUCGAGUGA [Fam2.1 aminoacylation ribozyme variant] | 5.01 | 10.3 | 9.59 | 5.22 | 8.11 | 28.3
GUUACCCUGCUCAUCGAGUGA [Fam2.1 aminoacylation ribozyme variant] | 1.66 | 3.45 | 2.23 | 1.79 | 3.06 | 8.33
GUUACCCUGGUCAGCGAGUGA [Fam2.1 aminoacylation ribozyme variant] | 4.8 | 7.95 | 6.76 | 4.05 | 6.72 | 42.9
GUUACCCUGGUCAUCAAGUGA [Fam2.1 aminoacylation ribozyme variant] | 2.37 | 4.39 | 3.12 | 2.08 | 3.81 | 11
GUUACCCUGGUCAUCGAGUAA [Fam2.1 aminoacylation ribozyme variant] | 6.86 | 18.7 | 21.8 | 7.98 | 22.6 | 93.6
GUUACCCUGGUCAUCGAGUCA [Fam2.1 aminoacylation ribozyme variant] | 0.936 | 1.1 | 1.28 | 1.46 | 1.26 | 1.64
GUUACCCUGGUCAUCGAGUGA [Fam2.1 aminoacylation ribozyme variant] | 35.2 | 101 | 100 | 38.3 | 99 | 747
GUUACCCUGGUCAUCGAGUGC [Fam2.1 aminoacylation ribozyme variant] | 4.28 | 9.64 | 13 | 4.94 | 12.9 | 33.8
GUUACCCUGGUCAUCGAGUUA [Fam2.1 aminoacylation ribozyme variant] | 4.48 | 10 | 11.1 | 5.21 | 12 | 23.1
GUUACCCUGGUCAUCGCGUGA [Fam2.1 aminoacylation ribozyme variant] | 11.2 | 26.8 | 25.2 | 14.8 | 25.3 | 212
GUUACCCUGGUCAUCGGGUGA [Fam2.1 aminoacylation ribozyme variant] | 30.9 | 90.7 | 92.1 | 36.7 | 89.7 | 503
GUUACCCUGGUCAUGGAGUGA [Fam2.1 aminoacylation ribozyme variant] | 3.51 | 7.15 | 5.89 | 3.36 | 4.85 | 36.2
GUUACCCUGGUCGUCGAGUGA [Fam2.1 aminoacylation ribozyme variant] | 1.5 | 2.24 | 1.9 | 1.6 | 2.13 | 9.01
GUUACCCUGGUCUUCGAGUGA [Fam2.1 aminoacylation ribozyme variant] | 4.45 | 10.1 | 8.79 | 5.01 | 8.47 | 50.7
GUUACCCUGGUGAUCGAGUGA [Fam2.1 aminoacylation ribozyme variant] | 3.37 | 8.86 | 7.43 | 3.33 | 6.75 | 34.8
GUUACGCUGGUCAUCGAGUGA [Fam2.1 aminoacylation ribozyme variant] | 5.57 | 10.6 | 8.34 | 4.86 | 7.2 | 59.2
GUUCAACUAGGUCAUCGGGUG [Fam2.2 aminoacylation ribozyme variant] | 4.28 | 6.75 | 6.94 | 4.16 | 5.04 | 42.6
